According to patent publication US20050064420A1, “Methods for identifying, isolating, and controlling the growth of estrogen-responsive cells” (Dana-Farber Cancer Institute, Inc., priority 2001, published 2005):

B1: lipocalin 2: Secreted human protein; expressed from pCEP4-lipocalin-HA with C-terminal double hemagglutinin tag, or supplied in conditioned medium (protein, UniProt P80188 21-198, looked up)
Neutrophil …: QDSTSDLIPAPPLSKVPLQQNFQDNQFQGKWYVVGLAGNAILREDKDPQKMYATIYELKEDKSYNVTSVLFRKKKCDYWIRTFVPGCQPGEFTLGNIKSYPGLTSYLVRVVSTNYNQHAMVFFKKVSQNREYFKITLYGRTKELTSELKENFIRFSKSLGLPENHIVFPVPIDQCIDG
modifications: C-terminal double HA tag
notes: Secreted human protein; expressed from pCEP4-lipocalin-HA with C-terminal double hemagglutinin tag, or supplied in conditioned medium

Legend:
[1] = test system: estrogen receptor expressing human breast cancer cell lines; type: cell-based
Experimental: Profiles for untreated (filled) and estrogen treated cells (unfilled) infected with the Ad-25ERE-GFP adenovirus are shown.
To assay estrogen responsiveness, cells were cultured in estrogen-free medium (phenol red-free RPMI1640 or DMEM/F12 medium (Life Technologies, Rockville, Md.) supplemented with charcoal/dextran treated fetal bovine serum (cd FBS; 5%) (Hyclone, Logan, Utah)) for 7 days. The cells were tested in fresh estrogen-free medium or fresh estrogen-free medium supplemented with 10 nM estradiol or 10 μM 4-hydroxy-tamoxifen. Cells were collected after 16-24 hours of hormone treatment.
For fluorescence microscopy analysis breast cancer cell lines were infected with Ad-25ERE-GFP virus at a MOI (multiplicity of infection) of ˜100 and treated with hormones as described above.
By infecting mammary epithelial cells with the Ad-25ERE-GFP adenovirus, it was possible to isolate ER+ estrogen responsive cells based on GFP expression. […] Ad-25ERE-GFP was then used to infect various estrogen receptor expressing human breast cancer cell lines in the presence of estrogen or tamoxifen or in the absence of hormone (FIG. 1B).

[2] = test system: ER+ breast cancer cell lines (MCF-7 and T47D); test: Colony assay after transfection with lipocalin 2 expression vector (pCEP4-lipocalin-HA), hygromycin selection; type: cell-based, human; settings: lipocalin 2 expression vs control vector pCEP4; 2 weeks hygromycin selection; crystal violet staining
Excerpt: (§1) FIG. 3D is a bar graph showing the numbers of colonies that were obtained after drug (hygromycin) selection (for 2 weeks) of estrogen receptor (“ER”) expressing (“Positive”) MCF-7 and T47D breast cancer cells, estrogen receptor non-expressing (“Negative”) BT549 and MTA-MB-435S breast cancer cells, and estrogen receptor non-expressing (“Negative”) MCF10A normal immortalized mammary epithelial cells that had all been transfected with either a control expression vector (“CEP”) or an expression vector containing cDNA encoding human lipocalin 2 fused at its C-terminus to a double hemagglutinin tag (“LIPO”). The experiments were carried out in T25 tissue culture flasks and the data are expressed as the number of “Colonies/T25 flask”.
(§2) cDNA encoding human lipocalin 2 was amplified by PCR and the isolated PCR product was cloned into the pCEP4 (Invitrogen, Carlsbad, Calif.). The resulting vector (pCEP4-lipocalin-HA) expresses lipocalin-2 with a double hemaglutinnin (HA) tag at its C-terminus. For colony assays, cells were transfected with pCEP4 (control) or pCEP4-lipocalin-HA using FuGene6 (Roche, Indianapolis, Ind.). Transfectants were selected in hygromycin-containing medium for 2 weeks after which colonies were visualized by crystal violet staining. Expression of the lipocalin 2-HA fusion protein was confirmed by western blot analysis (using an antibody specific for HA (Covance, Richmond, Calif.)) of cell lysate and medium from T47D cells transfected with pCEP4 or pCEP4-lipocalin-HA constructs.
(§3) Lipocalin 2 is a secreted protein and could thus be a paracrine factor expressed by NER+ cells that affects the surrounding mammary epithelial cells. In order to determine the effect of lipocalin 2 expression on mammary cell growth, colony growth assays were performed in various ER− and ER+ breast cancer cell lines and in MCF10A cells (FIG. 3D). […] In MCF10A immortalized ER− normal mammary epithelial cells a small increase in the number of colonies (18 vs. 7 colonies) was also observed following lipocalin 2 transfection (FIG. 3D). […]

[3] = test system: MCF10A immortalized ER- normal mammary epithelial cells; test: as above; type: cell-based, human; settings: following lipocalin 2 transfection (control vector: 7 colonies), T25 flask
Excerpt: as §1, §2, §3

[4] = test system: ER- breast cancer cell line BT549; test: as above; type: cell-based, human; settings: lipocalin 2 expression vs control vector pCEP4, 2 weeks hygromycin selection
Excerpt: as §1, §2, §3

MCF10A cells = test: Colony assay with lipocalin 2 conditioned medium; type: cell-based, human; settings: conditioned medium from cells expressing lipocalin 2 vs GFP, seven days of culture
Experimental: (§4) FIG. 4 is a bar graph showing the number of colonies that were obtained after culturing estrogen receptor expressing 747D breast cancer cells and estrogen receptor non-expressing MCF10A normal immortalized mammary epithelial cells with conditioned medium from […] cells recombinantly expressing either GFP (“GEP”) or lipocalin 2 (“LIPO”). The experiments were carried out in the wells of 6-well tissue culture plates. Data, which are expressed as “Colonies/well”, from experiments carried out in medium supplemented with 5% fetal bovine serum (“5% FBS”) or 0.2% fetal bovine serum (“0.2% FBS”) are shown.
(§5) For experiments to test for cell growth regulatory activity in secreted lipocalin 2, conditioned medium was generated by infecting COS7 cells with replication-defective adenoviruses expressing either GFP or lipocalin 2. Filtered medium collected 3-4 days after infection was applied to T47 or MCF10A cells. Colonies were visualized by crystal violet staining after seven days of culture.
(§6) Lipocalin 2 is a secreted protein and could thus be a paracrine factor expressed by NER+ cells that affects the surrounding mammary epithelial cells. In order to determine the effect of lipocalin 2 expression on mammary cell growth, colony growth assays were performed in various ER− and ER+ breast cancer cell lines and in MCF10A cells (FIG. 3D). […]

T47D cells = test: Colony assay with lipocalin 2 conditioned medium; type: cell-based, human; settings: conditioned medium from cells expressing lipocalin 2 vs GFP, seven days of culture
Experimental: as §4, §5, §6

| Molecule | GFP expression [1] | colony numbers [2] | number of colonies [3] [colonies] | colony numbers [4] | growth (colonies) with exogenous lipocalin 2 (MCF10A cells) | growth (colonies) with exogenous lipocalin 2 (T47D cells) |
| --- | --- | --- | --- | --- | --- | --- |
| C[C@]12CC[C@@H]3c4ccc(O)cc4CC[C@H]3[C@@H]1CC[C@@H]2O [estrogen, estradiol] | high GFP expression | – | – | – | – | – |
| B1 | – | dramatically suppressed colony numbers | 18 | small but significant increase in colony numbers | enhanced | inhibited |
